US20220306702

B1: NLeE from Shigella (Shigella NleE) (protein)
chain: GSMRKKRRQRRRSIEIKMISPIKNIKNVFPINTANTEYIVRNIYPRVEHGYFNESPNIYDKKYISGITRSMAQLKIEEFINEKSRRLNYMKTMYSPCPEDFQPISRDEASTPEGSWLTVISGKRPMGQFSVDSLYHPDLHALCELPEISCKIFPKENSDFLYIIVVFRNDSPQGELRANRFIELYDIKREIMQVLRDESPELKSIKSEIIIAREMGELFSYASEEIDSYIKQMNDRLSQIKARMPVTGSRS
B2: wild-type NleE (EPEC NleE) (protein)
chain: MINPVTNTQGVSPINTKYAEHVVKNIYPEIKHDYFNESPNIYDKKYISGITRGVAELKQEEFVNEKARRFSYMKTMYSVCPEAFEPISRNEASTPEGSWLTVISGKRPMGQFSVDSLYNPDLHALCELPDICCKIFPKENNDFLYIVVVYRNDSPLGEQRANRFIELYNIKRDIMQELNYELPELKAVKSEMIIAREMGEIFSYMPGEIDSYMKYINNKLSKIE

Key:
[1] = target: GST-TAB2 protein substrate [GST: P08515]
[2] = target: 64 other human C4 ZF containing proteins

Protein	methylase activity (MTase glo assay) [1]	modification by NleE (cysteine methylation assay) [2]
B1	the Shigella NleE showed methylase activity at levels comparable to that seen for the EPEC NleE	–
B2	–	But few of them were modified by NleE
